Biological target: T1, RECQL4 (endogenous) (human (endogenous in HeLa), UniProt O94761 1-1208)
T1 sequence (looked up): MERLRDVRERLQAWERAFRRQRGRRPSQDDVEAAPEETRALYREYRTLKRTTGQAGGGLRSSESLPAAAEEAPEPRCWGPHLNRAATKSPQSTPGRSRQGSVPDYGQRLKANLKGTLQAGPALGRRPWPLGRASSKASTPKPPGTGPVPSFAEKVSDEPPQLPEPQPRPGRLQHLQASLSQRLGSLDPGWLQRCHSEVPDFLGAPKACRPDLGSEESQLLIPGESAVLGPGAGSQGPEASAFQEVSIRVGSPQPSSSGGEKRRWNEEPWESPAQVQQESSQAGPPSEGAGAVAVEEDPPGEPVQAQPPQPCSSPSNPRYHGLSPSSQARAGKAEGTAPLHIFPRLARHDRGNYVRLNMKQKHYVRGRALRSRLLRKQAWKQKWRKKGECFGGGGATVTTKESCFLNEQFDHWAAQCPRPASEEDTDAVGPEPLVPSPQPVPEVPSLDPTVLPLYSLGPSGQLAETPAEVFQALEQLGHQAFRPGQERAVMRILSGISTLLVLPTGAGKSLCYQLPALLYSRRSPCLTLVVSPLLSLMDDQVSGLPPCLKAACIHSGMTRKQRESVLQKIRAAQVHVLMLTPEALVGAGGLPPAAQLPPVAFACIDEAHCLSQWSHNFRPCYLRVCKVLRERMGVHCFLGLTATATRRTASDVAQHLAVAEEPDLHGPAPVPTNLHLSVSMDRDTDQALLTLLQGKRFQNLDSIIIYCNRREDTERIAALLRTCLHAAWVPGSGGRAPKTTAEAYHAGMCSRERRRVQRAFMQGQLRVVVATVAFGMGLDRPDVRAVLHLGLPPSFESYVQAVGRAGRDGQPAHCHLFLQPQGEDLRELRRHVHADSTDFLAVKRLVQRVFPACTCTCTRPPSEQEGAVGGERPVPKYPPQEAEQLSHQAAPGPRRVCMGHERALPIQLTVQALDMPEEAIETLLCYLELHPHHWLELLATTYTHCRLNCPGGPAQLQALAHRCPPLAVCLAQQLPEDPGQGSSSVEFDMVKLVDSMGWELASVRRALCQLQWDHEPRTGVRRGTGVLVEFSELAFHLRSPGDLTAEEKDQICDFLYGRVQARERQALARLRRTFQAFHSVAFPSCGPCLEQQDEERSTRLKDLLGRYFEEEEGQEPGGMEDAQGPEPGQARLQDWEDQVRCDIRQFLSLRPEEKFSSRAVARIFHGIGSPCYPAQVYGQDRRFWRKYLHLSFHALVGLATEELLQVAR
Assay: co-IP

B1: BLM (endogenous) (natural protein)
chain: not shown
fold change of the co-immunoprecipitated BLM signal, S-phase against G0–G1 phase: ~5 fold
